The values below are quoted from earlier work in article PMC9152818.

Like-named read-outs stand apart in the source and are kept apart here.

A word on the Kd: it is the free concentration of one partner at which half of the binding sites on the other are occupied at equilibrium, for simple one-to-one binding.

For data set [1], the target named is spike protein RBD (SARS-CoV-2) (UniProt P0DTC2).
Data set [2] addresses spike protein (SARS-CoV-2) (UniProt P0DTC2).
Data set [3] concerns the target spike protein RBD (SARS-CoV-2) (UniProt P0DTC2). The source holds these as a separate data set.
Data set [4] has as its target spike protein CendR peptide CendR peptide (SARS-CoV-2) (UniProt P0DTC2).
Data set [5] deals with spike protein RBD (SARS-CoV-2) (UniProt P0DTC2). The source holds these as a separate data set.

Regarding ASGR1 (from UniProt P07306), in data set [1], the Kd was 0.095 µM.

With AXL (from UniProt P30530), the Kd in data set [2] was 1 µM.

Take Kremen1 (from UniProt Q96MU8): in data set [3], the Kd was 0.02 µM.

Turning to Neuropilin-1 (from UniProt O14786), in data set [4], the dissociation constant (Kd) was 20 µM.

With “soluble trimeric ACE2 (from UniProt Q9BYF1)”, the Kd in data set [5] was less than 0.001 µM.
